# Patent US20250304714A1 (Regeneron, published 2025)
# Positions count from the first letter of the chain named.
# B1: PSMA/CD3-001 (bispecific antibody, V domains shown)
# VH 1: QVQLVESGGGVVQPGRSLRLSCAASGFTFSSYGMHWVRQAPGKGLEWVAVISYAGNNKYYADSVKGRFTVSRDNSKKTLYLQMNSLRSEDTAVYYCAKDSYYDFLTDPDVLDIWGQGTMVTVSS
# VH 2: EVQLVESGGGLVQPGRSLRLSCAASGFTFDDYSMHWVRQAPGKGLEWVSGISWNSGSIGYADSVKGRFTISRDNAKNSLYLQMNSLRAEDTALYYCAKDGSGYGKFYYYGMDVWGQGTTVTVSS
# VL: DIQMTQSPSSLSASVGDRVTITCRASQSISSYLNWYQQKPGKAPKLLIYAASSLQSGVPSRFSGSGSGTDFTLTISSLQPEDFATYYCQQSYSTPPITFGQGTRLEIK
# notes: also called anti-PSMA x anti-CD3 bispecific antibody with anti-CD3 arm CD3-VH-G5
# B2: PSMA/CD3-002 (bispecific antibody, V domains shown)
# VH 1: B1 VH 1
# VH 2: B1 VH 2 with D99Y
# VL: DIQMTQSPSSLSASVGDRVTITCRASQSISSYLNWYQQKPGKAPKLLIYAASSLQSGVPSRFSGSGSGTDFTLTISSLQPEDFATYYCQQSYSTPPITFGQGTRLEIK
# notes: also called REGN4336; anti-PSMA x anti-CD3 bispecific antibody with anti-CD3 arm CD3-VH-G20
# Assays:
# human CD3 [1] = biological target: T1, human CD3 (human, UniProt P07766 23-207; P04234 22-171; P09693 23-182); test: flow cytometry (FACS) on Jurkat cells
# T1 construct: also called CD3 on human CD3-expressing Jurkat cells; CD3 on human T cells; copies: 2 + 1 + 1
# T1 sequence (P07766 23-207 limits assumed, chain 1 of 3): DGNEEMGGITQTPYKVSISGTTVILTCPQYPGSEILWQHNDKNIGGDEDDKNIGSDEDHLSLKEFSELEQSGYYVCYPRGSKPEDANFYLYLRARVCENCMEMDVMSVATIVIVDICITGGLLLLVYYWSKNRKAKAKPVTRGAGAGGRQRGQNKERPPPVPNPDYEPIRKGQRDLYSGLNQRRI
# T1 sequence (P04234 22-171 limits assumed, chain 2 of 3): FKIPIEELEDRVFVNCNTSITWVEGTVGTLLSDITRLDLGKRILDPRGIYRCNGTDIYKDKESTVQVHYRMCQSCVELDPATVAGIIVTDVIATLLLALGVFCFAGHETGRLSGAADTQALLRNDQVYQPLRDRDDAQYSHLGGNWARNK
# T1 sequence (P09693 23-182 limits assumed, chain 3 of 3): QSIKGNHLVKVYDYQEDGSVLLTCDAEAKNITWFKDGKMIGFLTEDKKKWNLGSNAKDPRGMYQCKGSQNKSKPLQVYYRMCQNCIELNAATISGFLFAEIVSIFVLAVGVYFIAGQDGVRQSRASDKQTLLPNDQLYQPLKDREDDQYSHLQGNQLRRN
# Experimental: (§1) Briefly, 2×10⁵ cells/well of human CD3-expressing Jurkat, cynomolgus T, or human PSMA-specific expressing cells were incubated with a serial dilution of bispecific antibodies for 30 min at 4° C. After incubation, cells were washed and a goat F(ab′)₂ anti-human Fcγ PE labeled secondary (Jackson Immunolabs) was added to the cells for an additional 30 min. Next, cells were washed, re-suspended in cold PBS+1% BSA and analyzed via flow cytometry on a BD FACS Canto II.
# (§2) For FACS analysis, cells were gated by forward scatter height vs. forward scatter area for single events selection, followed by side and forward scatters. The EC₅₀ for cell binding titration was determined using Prism software. Values were calculated using 4-parameter non-linear regression analysis.
# [2] = biological target: T2, human prostate-specific membrane antigen (PSMA) (human, UniProt Q04609 1-750); test: cell-based or functional assay
# T2 sequence (Q04609 whole entry): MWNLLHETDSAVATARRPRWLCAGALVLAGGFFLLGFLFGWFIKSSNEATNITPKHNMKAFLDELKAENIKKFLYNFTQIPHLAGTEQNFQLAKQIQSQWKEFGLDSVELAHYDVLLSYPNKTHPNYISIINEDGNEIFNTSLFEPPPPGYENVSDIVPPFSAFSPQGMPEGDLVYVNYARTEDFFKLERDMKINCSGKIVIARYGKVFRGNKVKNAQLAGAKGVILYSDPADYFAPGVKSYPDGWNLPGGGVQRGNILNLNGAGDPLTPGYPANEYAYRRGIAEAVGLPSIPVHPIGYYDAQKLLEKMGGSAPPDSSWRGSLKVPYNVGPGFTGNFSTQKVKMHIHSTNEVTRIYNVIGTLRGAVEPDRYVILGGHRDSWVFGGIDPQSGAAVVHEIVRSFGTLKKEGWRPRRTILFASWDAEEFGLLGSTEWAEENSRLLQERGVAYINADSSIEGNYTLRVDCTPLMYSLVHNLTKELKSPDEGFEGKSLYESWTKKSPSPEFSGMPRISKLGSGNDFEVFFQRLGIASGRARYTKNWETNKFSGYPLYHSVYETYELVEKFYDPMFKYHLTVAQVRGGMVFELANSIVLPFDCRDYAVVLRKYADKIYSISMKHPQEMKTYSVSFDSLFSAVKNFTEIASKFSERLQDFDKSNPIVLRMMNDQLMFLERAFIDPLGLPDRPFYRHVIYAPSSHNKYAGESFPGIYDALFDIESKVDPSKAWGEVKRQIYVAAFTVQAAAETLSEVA
# human CD3 [3] = biological target: T1, human CD3; test: cell-based or functional assay
# [4] = biological target: T2, human prostate-specific membrane …; test: flow cytometry (FACS) on B16F10.9/PSMA cells
# Experimental: as §1, §2
# cynomolgus CD3 = biological target: T3, cynomolgus CD3 (cynomolgus); test: flow cytometry (FACS) on cynomolgus T cells
# T3 construct: whole, on cells; also called CD3 on cynomolgus T cells; Cyno T-cells
# T3 sequence (Q95LI5 22-198, chain 1 of 3): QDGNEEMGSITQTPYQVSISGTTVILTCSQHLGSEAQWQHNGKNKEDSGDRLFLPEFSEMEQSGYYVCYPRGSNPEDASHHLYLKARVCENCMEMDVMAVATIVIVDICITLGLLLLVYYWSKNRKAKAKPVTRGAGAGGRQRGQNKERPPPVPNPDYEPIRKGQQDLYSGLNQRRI
# T3 sequence (Q95LI8 22-171, chain 2 of 3, further chain): as the sequence (P04234 22-171 limits assumed, chain 2 of 3) above, with I5V, N15K, I20V, S32T, D33N, I34N, T64A, S74N, V83L, H141R counted along it
# T3 sequence (Q95LI7 23-181, chain 3 of 3, further chain): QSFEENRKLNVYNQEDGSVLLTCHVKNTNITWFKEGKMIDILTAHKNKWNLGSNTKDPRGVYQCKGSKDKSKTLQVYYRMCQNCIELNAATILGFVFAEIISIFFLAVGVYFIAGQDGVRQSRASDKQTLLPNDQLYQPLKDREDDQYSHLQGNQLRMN
# Experimental: as §1, §2
# [5] = biological target: T4, soluble heterodimeric hCD3 mFc protein (human); test: SPR at 37° C., antigen-capture format, MASS-1
# T4 construct: Heterodimer of two different CD3 chains fused to mFc; the names of the subunits seem to have been lost in the printed text ('hCD3 mFc'); also called soluble heterodimeric CD3 protein; Soluble Human CD3
# T4 sequence (P07766 23-126, chain 1 of 2): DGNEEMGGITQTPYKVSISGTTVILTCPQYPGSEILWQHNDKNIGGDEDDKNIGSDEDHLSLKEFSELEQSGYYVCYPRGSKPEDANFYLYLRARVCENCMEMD
# T4 sequence (P04234 22-105, chain 2 of 2, further chain): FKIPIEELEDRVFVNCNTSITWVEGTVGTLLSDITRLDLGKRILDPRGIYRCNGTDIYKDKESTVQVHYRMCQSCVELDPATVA
# Experimental: Measurements were conducted on a Sierra Sensors MASS-1 instrument.
# In the antigen-capture format, the MASS-1 high-density amine sensor surface was derivatized with a goat anti-mouse IgG2a polyclonal antibody (Southern Biotech). Soluble heterodimeric CD3 protein was captured and the respective antibodies were injected over the captured antigen.
# Kinetic association (kₐ) and dissociation (kd) rate constants were determined by processing and fitting the data to a 1:1 binding model using MASS-1 AnalyserR2 curve fitting software. Binding dissociation equilibrium constants (KD) and dissociative half-lives (t_{1/2}) were calculated from the kinetic rate constants as: KD (M)=kd/kₐ; and t_{1/2} (min) (In2/(60*kd).
Binder,EC50 (human CD3 [1]) [nM],22RV1 Cell depletion EC50 [2] [nM],C4-2 Cell depletion EC50 [2] [nM],TrampC2.PSMA Cell depletion EC50 [2] [nM],T cell activation EC50 [M] (percent CD69+ of CD2+ T cells) (human CD3 [3]),EC50 [4] [nM],EC50 (cynomolgus CD3) [nM],Kd [5] [nM],T1/2 [5] [min],koff [5] [s⁻¹],kon [5] [M⁻¹ s⁻¹]
B1,~1000,0.00631,0.0215,0.0115,1.34e-11,1.31,,,,,
B2,210,0.00832,0.0139,,6.11e-12,2.09,6140,334,2,0.00577,17300
